{
  "source": "patent US12630632B2",
  "about": "“Bispecific HER2 and CD3 binding molecules” (Memorial Sloan Kettering Cancer Center, priority 2017, dated 2026)",
  "test_system": "naïve T cells",
  "assay": "T cell proliferation (WST-8)",
  "assay_type": "cell-based, human",
  "details": "67 nM antibody, 6 days",
  "experimental": "For T cell proliferation, naïve T cells were purified from human PBMC using Pan T cell isolation kit (Miltenyi Biotec). 2×10^5 purified T cells were mixed with different antibodies in 96-well cell culture plate to a final volume of 250 μl/well. T cells were cultured and maintained in RPMI-1640 supplemented with 10% FBS in 37° C. for 6 days. T cell proliferation was quantitated using the WST-8 kit as described above.",
  "data": [
    {"molecule": "huOKT3 Fab: monovalent Fab prepared from huOKT3 IgG1 (antibody, V domains shown) VH: QVQLVQSGGGVVQPGRSLRLSCKASGYTFTRYTMHWVRQAPGKGLEWIGYINPSRGYTNYNQKFKDRFTISRDNSKNTAFLQMDSLRPEDTGVYFCARYYDDHYCLDYWGQGTPVTVSS VL: DIQMTQSPSSLSASVGDRVTITCSASSSVSYMNWYQQTPGKAPKRWIYDTSKLASGVPSRFSGSGSGTDYTFTISSLQPEDIATYYCQQWSSNPFTFGQGTKLQITR", "values": [
      {"measurement": "T cell proliferation in the absence of tumor targets", "value": "negligible effects"}
    ]}
  ]
}
